In PMC11413682 (2024):

B1: SARS-CoV-2 ORF10 N4 peptide (peptide)
peptide: GYIN
B2: SARS-CoV-2 ORF10 N2 peptide (peptide)
peptide: GY
B3: CUL2^ZYG11B (residues 490–728) (domain or fragment)
chain: ELFIVRQLLQIVKQKTNQNSVDTTLKFTLSALWNLTDESPTTCRHFIENQGLELFMRVLESFPTESSIQQKVLGLLNNIAEVQELHSELMWKDFIDHISSLLHSVEVEVSYFAAGIIAHLISRGEQAWTLSRSQRNSLLDDLHSAILKWPTPECEMVAYRSFNPFFPLLGCFTTPGVQLWAVWAMQHVCSKNPSRYCSMLIEEGGLQHLYNIKDHEHTDPHVQQIAVAILDSLEKHIVR
B4: SARS-CoV-2 ORF10 N5 peptide (peptide)
peptide: GYINV
B5: SARS-CoV-2 ORF10 N3 peptide (peptide)
peptide: GYI

Experiments:
[1] = biological target: B3; test: ITC
[2] = biological target: B3; test: ITC; remark: listed apart in the source
SNX11-degron peptide [3] = test: ITC
SNX11-degron peptide [4] = test: ITC; pre-formed ZYG11B/ORF10 N5 peptide complex

| Binder | Ka [1] | further results |
| --- | --- | --- |
| B1 | 193000 M⁻¹ | – |
| B2 | – | Kd [2]: > 200 µM |
| B3 | – | Kd (SNX11-degron peptide [3]): 0.4 µM; Kd (SNX11-degron peptide [4]): 5.23 µM |
| B4 | 340000 M⁻¹ | – |
| B5 | 69100 M⁻¹ | – |
